Experiment: yeast display, Sf9 membrane polyspecificity reagent, FACS + sequencing; frameworks hold sequencing errors
Procedure, shortened: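 Nanobodies from a synthetic yeast display library (Saccharomyces cerevisiae BJ5465), induced 36–48 hours with galactose, were stained 1 hour at 4 °C with 10% biotinylated, detergent-solubilized Sf9 membrane reagent, enriched on streptavidin microbeads, then FACS-sorted. Anti-HA (expression) and streptavidin (reagent binding) fluorescence set low and high (top ~1%) gates. Polyreactivity labels come from the gate of origin. Genes were colony-PCR amplified, MiSeq 2 × 250 sequenced and filtered by CDR length.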

| Sequence | polyreactivity (PSR sort gate) |
| --- | --- |
| QVQLVESGGGLVQAGGSLRLSCAASGSIFTRYVQGWYRQAPGNDRELVAAISGRGSSTYYADSVKGRFTISRDNAKNTVYLQMNSLKPEDTAVYYCAAEIVVFYSEGQRNTFYYWGQGTQVTVSS | high polyreactivity |
| QVQLVESGGGLVQAGGSLRLRGAASGGILVGYAMGWYRQAPGKERELVAAINYSGGSTNYADSVKGRFTISRDNAKNTVYLQMNSLKPEDTAVYYCAARSTARYGYWGQGTQVTVSS | low polyreactivity |
| QVQHVESGGGLVQAGGSLRLSCAATGTTFDTYAMGWNRQATGKERELVAAINSGGGTNYADSVKGRFTIARDNAKNTVYLQMNSLKPEVTAVYYCATDIRRDAGGGDFDYWGQGTQVTVSS | low polyreactivity |
| QVQLVESGGGLVQAGGSLRLTCAASGITFFQYAMGWYRQAPGKERELVAAITWSGGDTYYADSVKGRFTISRDNAKITVYLQMNSLKPEDTAVYYCAAEYVVQYYVYGYTLGYDYWGQGTQVTVSS | high polyreactivity |
| QVQLVESGGGLVQAGASLRLSCAASGRTFYNYAMGWYRQARGKEREFVASMTTSGGSTYYADSVKGRFTISRDNAKNTVYLQMNSLKPEDTAVYYCARRAYRSWTGNSYEYYYWGQGTQVTVSS | high polyreactivity |
| QVQLVESGGGLVQAGGSLRLSCAASGSIFYYNALGWYRHAPGKERELVASISNGGSTDYADSVKGRFTISRDNAKNTVYLQMNSVKPEDTAVYYCNAKQSYRSDYDYWGQGTQVTVSS | low polyreactivity |
| QGQLVETGGGLVQAGGILRLSCAASGSIFGDYDMGWYRQDPGKERDLVAAITSSGGMTYYADSVKGRFTISRDNAKNTVYFQMNSLKPVDTAVYYCAAYGYGSKYRYTGYYYWGQGTQVTVSS | low polyreactivity |
| QFQLVESVGGLVQAGGSLRLSCAASGSTFVRNELGWYRQAPGKERELVAANSVDGSSTYYADSVKGRFTISRDNAKNTVYLQINSLKPEDTAVYYCNADWDYRDFYDITYDYWGQGTQVTVSS | low polyreactivity |
| QVQLVESGGGLVQAGGSLRLSCAASGSIFVLNAMGWYRQAPGKERELVAAISSADSTTYADSVKGRFTISRDNAKNSVYLQMNSLKPEDTAVYYCAADWWYVLIFDYWGQGTQVTVSS | low polyreactivity |
| QVQLVESGGGLVQAGGSLRLSCAASGITFNSYRMVWYRQAPVKERELVAAISGSGSSTYYADSVKGRFTISRDNAKNTVYLQMNSLKPEDTGVYYCADVSGKNVDFVWVLAYPRLDYWGQGTQVTVSS | low polyreactivity |
| QVQLVESGGGLVQAGGSLRLSCAASGFIFPQYAMGWYRQAPGKERELVAAISTGGGSTYYADSVKGRFTISRDNAKNTVYLQMNSLKPEDTAVYYCAKYVYRFARYNLDYWGQGTQVTVSS | high polyreactivity |
| QVQLVESVGGLVQEGGSLRLSCAASGFTFAFYAMGWYRQAPGKERELVAAMTRSGGSTYYADSVKGRFTISRDNAKNTVYLQMNSLKPEDTAVYYCAAVISRWGRSTYDYWGQGTQVTVSS | high polyreactivity |
| QVQLVESGGGLVQAGGSLRLSCAASGITLEVYAMGWYRQAPGKERELVAAITDSGGRTYYADSVKGRFTISRDNAKNTVYLQMNSLKPEDTAVYYCAADDTRVYGAGEYWGQGTQVTVSS | low polyreactivity |
| QVQLVESGGGLVQAGGSLRLSCAASGRTFYVYAMGWYRQAPGKERELVAAISWSGGSTYYADSVKGRFTISRDNAKNTVYLQMNSLKPEDTAVYYCAAQTYQRHVVAYDYWGQGTQVTVSS | low polyreactivity |
| QVQLVESGGGLVQAGGSLRLSCDASGFIFDHNAMGWYRQAPGKERELVAAISWGYGSTYYADSVKGRFTISRDNAKNTVYLQMNRLKTEDTAVYYCAARAVRYYAWVRGGCTSFDYWGQGTQVTVSS | high polyreactivity |
| QVQLVESGGGLVQAGGSLRLSCAASGGNFVSYAMGWYRQAPGKERDLVARINSVDGTNYADSVKGRFTISRDNAKNTVYLQMNSLKPEDTAVYYCATGGYYSAIVYGGYDYWGQGTQVTVSS | low polyreactivity |

| Sequence | polyreactivity (PSR sort gate) |
| --- | --- |
| QVQLVESGGGLVQAGGSLRLSCAASGSIFLAYAMGWDRQAPGKEREFVAAITWSGDSTYYADSVKGRFTISRDNAKNTVYLQMNSLKPEDTAVYYCAADYFGGPSYEFDYWGQGTQVTVSS | low polyreactivity |
| QVQLVESGGGLVQAGGSLRLSCAASGRIFGNYYKVWFRQAPGKERDLVAAISGGGSTYYADSVKGRFTISRDNAKNTVYLQMNSLKPEDTGVYYCAARFLWSVFGRKGGYWGQGTQVTVSS | low polyreactivity |
| QVQLVESGGGLVQAGGSLRLSCAASGSTFSLYVMGWYRQAPGKEREFVATINWRTVSTYYADSVKGRFTISRDNAKKTVYLQMNSLIPEDTAVYYCNAVSYPPDGTYDYWGQGTQVTVSS | low polyreactivity |
| QVQLVESGGGLVQAGGSLRLSCAASGSNLLRYAMGWYRQAPGKERELVAAIRTIGASTNYADSVKGRYTISRDNAKNTVYLLMNSMKPEDTAVYYCNSYLAEVLPVGKGRLYDYWGQGTQVTVSS | low polyreactivity |
| QVQLVESGGGLVQAGGSLRLSCAASGRIFLYNDMGWYRQAPGKERELVATITWNVTSTYYADSVKGRFTISRDNAKYTVYLQLNSLKPEDTAVYYCARGDHVGSAGYDYWGQGTQVTVSS | low polyreactivity |
| QVQLVESGGGLVQAGGSLRLSCAASGFTFRYYAMGWYRQAPGKERELVASINWSGGSTYYADSVKGRFTISRDNAKNTVYFQMNSLKPEDTAVYYCAADSIWGHYFARFDYWVQGTQVTVSS | high polyreactivity |
| QVHLVESGGGLVQAGGSLRLSCAASGLIFTTNAMGWYRQAPGKERDFVAAISPSGGSTYYADSVKGRFTISRDNSKNTVYLQMNSLKPEDTAVYYCAARYSTVWHKYYYWGQGTQVTVSS | high polyreactivity |
| QVQLVESGGGLVQAGGSLRLSCAASGLTFYANAMGWYRQAPGKERELVATISVGTDSTNYADSVKGRFTISRDNAKYTVYLQMNRLKPEDTAVYYCNALYEEYYAQDPYDYWGQGTQVTVSS | high polyreactivity |
| QVQLVESGGCLVQAGGSLRLSCAASGSTFYVYTMGWYTQAPGKESELVAAISWTDGDTYYADSVKGRFTISRDTAKKTVYLEMNSLKPEDTAVYYCAADIAWLWWYGPGYDYWGQGTQVTVSS | low polyreactivity |
| QVQLVESGGGLVQAGGSLRLSCAASGSTFDYYYMGWYRQAPGKERELVAAISYSGTSTYYADSVKGRFTISRDNAKNTVYLQMNSQKPEDTAVYYCAKVFPDWYWYDYCGQGTQVTVSS | low polyreactivity |
| QVQLVESGGGLVQAGGSLRLSCAASGRTFPYYAMGWYRQATGKERELVARIRSDGSTNYADSVKGRFTISRDNANNTVYLQMNSLKPEDTAVYYCAGKPYPSLFFHYGYWGQCTQVTVSS | low polyreactivity |
| QVQLVESGGGLVQAGGSLRLSCAASGSIFYYYAMGWYRQAPGKERELVAAITSGGSTYYADSVKGRFTISRDNAKNTVYLQMNSLKPEDTAVYYCAAVFYAAYLRYVWYSYDYWGQGTQVTVSS | low polyreactivity |
| QVELVESGGGLVQAGGSLRLSCAGSGIIFPYYVMGWYRQAPGKARELVAAINSGGRTYYADSVKGRFTISRDNAKNSVYLQMNSLNREDTAVYYCAATQSTNRMDHWGQGTQVTVSS | low polyreactivity |
| QVQLVESGGGLVQPGGSLRLSCAASGFIFSYYAIGWYRQAPGKERELVAAISYRGGSTHYADSVKGRFTISRDNAKNTVYLQMNSLKPEDTAVYYCAADRVRRPSPVGMDYWGQGTQVTVSS | high polyreactivity |
| QVQLVESGGGLVQAGGSLRLSCAASGGTIGYNAMGWYRQAPGKERELVAAISWSGGTTYYADSVKGRFTISRDNAKNTVYLQMNSLKPEDTAVYYCNVYSRGRDDWGQGTQVTVSS | high polyreactivity |

— the nanobody polyreactivity screen of Harvey et al. (2022)
